Experimental data taken from patent CN115703835A (BOAOXIN BIOTECHNOLOGY NANJING CO LTD, dated 2023).

Key:
人CRR9 (表面表达人CRR9的A549细胞) = biological target: T1, 人CRR9 (表面表达人CRR9的A549细胞) (human, UniProt Q96KA5 1-538); experiment: flow cytometry on A549 cells
T1 construct: whole, on cells; CRR9 as expressed by A549 cells; also called CLPTM1L; 顺铂耐药相关蛋白9
T1 sequence (looked up): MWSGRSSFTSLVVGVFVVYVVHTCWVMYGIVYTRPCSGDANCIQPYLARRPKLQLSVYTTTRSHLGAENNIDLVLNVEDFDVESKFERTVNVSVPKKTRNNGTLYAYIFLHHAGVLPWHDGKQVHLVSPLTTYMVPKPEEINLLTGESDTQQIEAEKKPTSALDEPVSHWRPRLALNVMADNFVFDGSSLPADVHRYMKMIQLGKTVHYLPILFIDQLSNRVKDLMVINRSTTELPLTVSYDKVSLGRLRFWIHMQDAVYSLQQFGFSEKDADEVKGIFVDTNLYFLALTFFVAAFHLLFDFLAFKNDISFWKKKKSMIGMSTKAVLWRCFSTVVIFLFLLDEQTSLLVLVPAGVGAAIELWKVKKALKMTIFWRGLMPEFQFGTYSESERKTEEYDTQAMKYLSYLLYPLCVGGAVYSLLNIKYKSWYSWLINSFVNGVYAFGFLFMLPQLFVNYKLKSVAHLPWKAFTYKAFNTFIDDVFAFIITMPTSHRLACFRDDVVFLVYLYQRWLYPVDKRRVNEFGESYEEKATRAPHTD

[1] = biological target: T2, 重组人CRR9蛋白 (human CRR9-TEV-Fc蛋白) (human, UniProt Q96KA5 32-284, biotin-labelled in the capture ELISA and the blocking ELISA (sites not given)); experiment: capture ELISA: antibody captured on GAM(Fc), biotinylated human CRR9-TEV-Fc at 0.2 ug/ml, SA-HRP
T2 construct: range 32-284; Made in-house; The order of parts follows the printed name CRR9-TEV-Fc; also called 人CRR9-TEV-Fc; CRR9-生物素; not shown: TEV site; Fc
T2 sequence (looked up): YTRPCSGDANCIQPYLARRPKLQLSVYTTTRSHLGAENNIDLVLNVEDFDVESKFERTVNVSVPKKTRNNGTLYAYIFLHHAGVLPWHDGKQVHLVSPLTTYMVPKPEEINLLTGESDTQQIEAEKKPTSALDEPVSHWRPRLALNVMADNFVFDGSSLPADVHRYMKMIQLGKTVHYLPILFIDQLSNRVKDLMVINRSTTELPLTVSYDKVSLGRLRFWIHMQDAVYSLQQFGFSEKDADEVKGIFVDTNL

- binding result (人CRR9 (表面表达人CRR9的A549细胞)): binds
- binding result [1]: binds
B1: 小鼠抗人CRR9单克隆抗体 A1C3G3B2 (antibody, V domains shown)
VH: QIQLVQSGPELKKPGETVKISCKASGYTFTNYGMSWVRQAPGKGLKWMGWINTNTGEPTYAEEFKGRFAFSLETSASTAYLQINNLKNEDTATYFCSRDYYYGGRGYFDYWGQGTTLTVSS
VL: QIVLTQSPAIMSASPGEKVTMTCSATSIVSYMHWYQQKSGTSPKRWIYDTSKLASGVPARFSGSGSGTSYSLTISSMEAADAATYYCQQWSYNPLTFGSGTKLELK
notes: Mouse monoclonal antibody purified from a hybridoma; also called 抗CRR9单克隆抗体
